Residue numbers refer to the chain shown, from its start. Names and notes keep the numbering of the source. Like-named read-outs stand apart in the source and are kept apart here. Values belong to the binder of their own block, whether it stands above or below them.
Tests used:
[1] = biological target: T1, Human OX40 protein having a His-Tag (human, UniProt P43489 29-216, limits assumed); assay: SPR Biacore 8K, Protein A chip; antibody captured, antigen analyte
T1 construct: Bought recombinant protein; also called hOX40-His; hOX40; not shown: His tag
T1 sequence (looked up): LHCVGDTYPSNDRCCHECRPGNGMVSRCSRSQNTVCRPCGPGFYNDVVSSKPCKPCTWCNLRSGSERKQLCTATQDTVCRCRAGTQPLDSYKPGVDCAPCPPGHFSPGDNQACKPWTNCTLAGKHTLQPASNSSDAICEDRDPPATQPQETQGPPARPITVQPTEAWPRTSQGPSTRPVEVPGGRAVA

[2] = biological target: T2, human CTLA4 expressed on transfected cells (human, UniProt P16410 36-223); assay: flow cytometry (MFI, anti-hIgG-Fc-Alexa Fluor 647) on HEK293T-hCTLA4-hOX40 cells co-expressing human CTLA4 and human OX40; the bispecific can bind both antigens on the same cell, signal not separable by target
T2 construct: whole, on cells; also called hCTLA4 on HEK293T-hCTLA4-hOX40 cells; on Jurkat-luc-hCTLA4
T2 sequence (looked up): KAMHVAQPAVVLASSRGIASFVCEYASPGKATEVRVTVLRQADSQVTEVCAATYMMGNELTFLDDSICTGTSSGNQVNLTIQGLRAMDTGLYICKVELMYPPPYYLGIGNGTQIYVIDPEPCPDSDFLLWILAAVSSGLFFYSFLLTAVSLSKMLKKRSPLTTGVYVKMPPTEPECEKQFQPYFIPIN

[3] = biological target: T3, human OX40 expressed on transfected cells (human, UniProt P43489 29-277); assay: as above
T3 construct: whole, on cells; also called hOX40 on HEK293T-hCTLA4-hOX40 cells; on Jurkat-luc-hOX40
T3 sequence (looked up): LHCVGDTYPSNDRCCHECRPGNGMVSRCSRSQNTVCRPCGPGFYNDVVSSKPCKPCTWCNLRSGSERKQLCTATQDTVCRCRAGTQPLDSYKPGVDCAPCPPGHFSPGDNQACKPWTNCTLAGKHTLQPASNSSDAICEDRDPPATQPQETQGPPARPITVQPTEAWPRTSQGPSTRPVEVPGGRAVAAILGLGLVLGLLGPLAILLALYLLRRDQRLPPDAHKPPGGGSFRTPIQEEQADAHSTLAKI

[4] = biological target: T4, Cynomolgus/Rhesus macaque OX40/TNFRSF4/CD134 Protein, His Tag (Cynomolgus/Rhesus macaque); assay: SPR Biacore 8K, Protein A chip; antibody captured, antigen analyte
T4 construct: Bought recombinant protein; also called fasOX40-His; monkey OX40

[5] = biological target: T1, Human OX40 protein having a His-Tag; assay: as above; remark: listed apart in the source
[6] = biological target: T5, Cynomolgus/Rhesus macaque CTLA-4 Protein, His Tag (Cynomolgus/Rhesus macaque); assay: as above
T5 construct: Bought recombinant protein; also called fasCTLA4-His; FasCTLA4-His

[7] = biological target: T6, Human CTLA4 protein having a His-Tag (human, UniProt P16410 37-162, limits assumed); assay: as above
T6 construct: Bought recombinant protein; also called hCTLA4-His; hCTLA4; not shown: His tag
T6 sequence (looked up): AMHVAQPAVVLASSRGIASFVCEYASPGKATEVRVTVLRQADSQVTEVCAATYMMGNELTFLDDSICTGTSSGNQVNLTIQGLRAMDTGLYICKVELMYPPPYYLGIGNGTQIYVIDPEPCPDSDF

[8] = biological target: T6, Human CTLA4 protein having a His-Tag; assay: as above; remark: listed apart in the source
[9] = biological target: T3, human OX40 expressed on transfected …; assay: flow cytometry (MFI, anti-hIgG-Fc-Alexa Fluor 647) on HEK293T-hCTLA4-hOX40 cells co-expressing human CTLA4 and human OX40
[10] = biological target: T3, human OX40 expressed on transfected …; assay: as above; remark: listed apart in the source

Kd [1]: 22.6 nM
koff [1]: 0.00744 s⁻¹
kon [1]: 330000 M⁻¹ s⁻¹
B1: OX-1F9-IgG1 (antibody, V domains shown)
VH: EVQLVESGGGLVQPGGSLRLSCAASGFTFSNYEMNWVRQAPGKGLEWISYIGSSGSTIYYADSVKGRFTISRDNAKNSLYLQMNSLRAEDTAVYYCAVDYIFDYWGQGTLVTVSS
VL: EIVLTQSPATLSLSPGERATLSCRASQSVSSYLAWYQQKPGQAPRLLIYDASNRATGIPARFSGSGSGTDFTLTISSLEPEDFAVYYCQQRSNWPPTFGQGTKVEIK
notes: Human anti-OX40 antibody from RenLite mice

Kd [4]: 30.4 nM
koff [4]: 0.0257 s⁻¹
kon [4]: 845000 M⁻¹ s⁻¹
Kd [5]: 69.6 nM
koff [5]: 0.00947 s⁻¹
kon [5]: 136000 M⁻¹ s⁻¹
B4: OX-2F5-CT-3D2-IgG1-SI (bispecific antibody, V domains shown)
VH 1: QVQLVESGPTLVKPTQTLTLTCTFSGFSLSTSGVGVGWIRQSPGKALEWLSLIYWDDDKRYNPSLKSRLTVTKDTSKNQVVLAMTNMDPVDTATYFCAHRAHSSSSSDYWGQGTLVTVSS
VH 2: QVQLVESGPGLVKPSETLSLTCTVSGDSIRSSHYYWGWIRQPPGKGLEWIGSIYFNGITYYSPSLKSRVTISVDTSKNQFSLKLTSVTAADTAVFYCARHNNYYDSSGYWYYFDYWGQGTLVTVSS
VL: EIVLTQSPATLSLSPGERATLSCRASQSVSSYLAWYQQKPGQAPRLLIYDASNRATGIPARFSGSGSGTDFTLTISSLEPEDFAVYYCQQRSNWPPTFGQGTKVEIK
notes: 1+1 knobs-into-holes human IgG1 with common light chain; SI mutations (S239D, I332E, EU)

Kd [8]: 7.48 nM
koff [8]: 0.00123 s⁻¹
kon [8]: 164000 M⁻¹ s⁻¹
B10: CT-5F9-IgG1 (antibody, V domains shown)
VH: QVQLVESGPGLLKPSETLSLTCTVSGGSISSSSSYWGWIRQPPGKGLEWIGSIYYSGITYYNPSLKSRVTISVDTSKNQFSLKVSSVTAADTAVYYCARLNWNQVFDYWGQGTLVTVSS
VL: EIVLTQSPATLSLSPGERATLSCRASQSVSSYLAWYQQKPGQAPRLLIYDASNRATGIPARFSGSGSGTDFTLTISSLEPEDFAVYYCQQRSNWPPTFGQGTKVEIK
notes: Human anti-CTLA4 antibody; IgG1 constant regions

Kd [8]: 21.8 nM
koff [8]: 0.000674 s⁻¹
kon [8]: 30900 M⁻¹ s⁻¹
B11: CT-5E3-IgG1 (antibody, V domains shown)
VH: QVQLVESGPGLVKPSETLSLTCTVSGGSISSSSYYWGWIRQPPGKGLEWIGSIYYTGNTYYNPSLKSRVTISVDTSKNQFSLKLSSVTAADTAVYYCARVGFSYGHPFDYWGQGTLVTVSS
VL: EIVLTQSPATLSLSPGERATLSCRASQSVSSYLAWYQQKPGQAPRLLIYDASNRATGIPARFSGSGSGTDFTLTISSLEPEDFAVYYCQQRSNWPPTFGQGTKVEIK
notes: as for B10

Kd [4]: 37 nM
koff [4]: 0.000685 s⁻¹
kon [4]: 18500 M⁻¹ s⁻¹
Kd [5]: 16.7 nM
koff [5]: 0.000626 s⁻¹
kon [5]: 37500 M⁻¹ s⁻¹
Kd [6]: 11.2 nM
koff [6]: 0.000422 s⁻¹
kon [6]: 37800 M⁻¹ s⁻¹
Kd [7]: 10.2 nM
koff [7]: 0.00023 s⁻¹
kon [7]: 22400 M⁻¹ s⁻¹
B13: OX-2C11-CT-4E12-IgG1-SI (bispecific antibody, V domains shown)
VH 1: EVQLVQSGGGLVKPGGSLRLSCAASGFTFSDSYMSWIRQAPGKGLEWISYISSSISYTKYADSVKGRFTISRDNAKNSLYLEMNSLRAEDTAVYYCARDYYDSGNYYYYFDYWGQGTLVTVSS
VH 2: QVQLVESGPGLVKPSETLSLTCAVSGGSISSSSYYWGWIRQPPGKGLEWIGNIYYTGITYYNPSLKSRITISVDTSKNQFSLKLSSVTAADTAVYYCARVGGYSYGYLFDYWGQGTLVTVSS
VL: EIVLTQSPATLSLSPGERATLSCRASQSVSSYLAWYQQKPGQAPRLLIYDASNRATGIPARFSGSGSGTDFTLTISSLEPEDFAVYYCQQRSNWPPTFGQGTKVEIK
notes: 1+1 knobs-into-holes human IgG1 with common light chain; SI mutations (S239D, I332E, EU) in Fc

Continued, binder first:

B2: OX-H8-CT-3D2-IgG1-SI (bispecific antibody, V domains shown)
VH 1: QITLKESGPTLVKPTQTLTLTCTFSGFSLSSRGVGVGWIRQPPGKALEWLALIYWDDDKRYSPSLKSRLTITKDTSKNQVVLTMANMDPVDTATYYCAHSHRGYENFWGQGTLVTVSS
VH 2: B4 VH 2
VL: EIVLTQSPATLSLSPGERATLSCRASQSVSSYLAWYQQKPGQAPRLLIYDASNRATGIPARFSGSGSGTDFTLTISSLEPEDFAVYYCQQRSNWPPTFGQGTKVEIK
notes: SI mutations (S239D, I332E, EU)
EC50 (read off the curve) [2]: ~1 µg/mL
EC50 (read off the curve) [3]: ~1 µg/mL
Kd [4]: 18.9 nM
koff [4]: 0.00966 s⁻¹
kon [4]: 510000 M⁻¹ s⁻¹
Kd [5]: 16 nM
koff [5]: 0.00784 s⁻¹
kon [5]: 490000 M⁻¹ s⁻¹

B3: OX-1F9-CT-3D2-IgG1-SI (bispecific antibody, V domains shown)
VH 1: B1 VH
VH 2: B4 VH 2
VL: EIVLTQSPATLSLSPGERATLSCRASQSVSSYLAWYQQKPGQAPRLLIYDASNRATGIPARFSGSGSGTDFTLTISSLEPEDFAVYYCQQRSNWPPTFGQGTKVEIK
notes: as for B4
Kd [4]: 2.48 nM
koff [4]: 0.000371 s⁻¹
kon [4]: 150000 M⁻¹ s⁻¹
Kd [5]: 22.8 nM
koff [5]: 0.00698 s⁻¹
kon [5]: 306000 M⁻¹ s⁻¹

B5: OX-2F2-CT-3D2-IgG1-SI (bispecific antibody, V domains shown)
VH 1: QVQLVESGGGLVQPGGSLRLSCAASGFTVSNNYMSWVRQAPGKGLEWVSVIYGGGDTYYADSVKGRFTISRDNSQNTLYLQMTSLRADDTAVYYCARGLTIFGVVPFDPWGQGTLVTVSS
VH 2: B4 VH 2
VL: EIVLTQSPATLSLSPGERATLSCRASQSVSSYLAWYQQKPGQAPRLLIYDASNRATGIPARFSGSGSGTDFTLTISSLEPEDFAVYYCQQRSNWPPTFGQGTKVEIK
notes: as for B4
Kd [6]: 4.77 nM
koff [6]: 0.000612 s⁻¹
kon [6]: 128000 M⁻¹ s⁻¹
Kd [7]: 14.2 nM
koff [7]: 0.000774 s⁻¹
kon [7]: 54600 M⁻¹ s⁻¹

B6: CT-4E12-IgG1 (antibody, V domains shown)
VH: B13 VH 2
VL: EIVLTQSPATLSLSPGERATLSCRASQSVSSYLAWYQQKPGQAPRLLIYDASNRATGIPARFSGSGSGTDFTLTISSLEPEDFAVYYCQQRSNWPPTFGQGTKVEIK
notes: as for B10
Kd [8]: 17 nM
koff [8]: 0.000422 s⁻¹
kon [8]: 24800 M⁻¹ s⁻¹

B7: OX-2F5-IgG1 (antibody, V domains shown)
VH: B4 VH 1
VL: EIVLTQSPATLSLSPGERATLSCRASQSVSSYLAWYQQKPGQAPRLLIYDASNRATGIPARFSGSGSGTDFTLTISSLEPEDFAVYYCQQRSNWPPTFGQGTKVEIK
notes: Human anti-OX40 antibody; IgG1 constant regions
Kd [1]: 45.6 nM
koff [1]: 0.0343 s⁻¹
kon [1]: 753000 M⁻¹ s⁻¹

B8: OX-2F2-IgG1 (antibody, V domains shown)
VH: B5 VH 1
VL: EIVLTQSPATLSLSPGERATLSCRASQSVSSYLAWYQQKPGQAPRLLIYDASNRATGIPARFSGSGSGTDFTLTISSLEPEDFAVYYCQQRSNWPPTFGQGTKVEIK
notes: as for B7
Kd [1]: 20 nM
koff [1]: 0.0217 s⁻¹
kon [1]: 1.09e+06 M⁻¹ s⁻¹

B9: CT-5E3-OX-2F2-IgG1-SI (bispecific antibody, V domains shown)
VH 1: B11 VH
VH 2: B5 VH 1
VL: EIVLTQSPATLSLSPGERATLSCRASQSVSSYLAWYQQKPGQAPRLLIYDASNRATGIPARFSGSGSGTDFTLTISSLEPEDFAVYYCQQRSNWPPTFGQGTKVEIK
notes: as for B4
Kd [4]: 4.91 nM
koff [4]: 0.000205 s⁻¹
kon [4]: 41800 M⁻¹ s⁻¹
Kd [5]: 50.2 nM
koff [5]: 0.0136 s⁻¹
kon [5]: 270000 M⁻¹ s⁻¹
Kd [6]: 8.36 nM
koff [6]: 0.00105 s⁻¹
kon [6]: 126000 M⁻¹ s⁻¹
Kd [7]: 27.8 nM
koff [7]: 0.000909 s⁻¹
kon [7]: 32700 M⁻¹ s⁻¹

B12: OX-2C11-IgG1 (antibody, V domains shown)
VH: B13 VH 1
VL: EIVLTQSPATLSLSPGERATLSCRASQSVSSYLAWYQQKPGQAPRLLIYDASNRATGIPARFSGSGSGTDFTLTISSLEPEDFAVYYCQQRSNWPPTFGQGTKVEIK
notes: as for B7
Kd [1]: 7.59 nM
koff [1]: 0.000412 s⁻¹
kon [1]: 54400 M⁻¹ s⁻¹

B14: OX-H7-IgG1 (antibody, V domains shown)
VH: QITLKESGPTLVKPAQTLTLTCTFSGFSLSTSGVGVGWIRQPPGKALEWLALIYWDDDKLYSPSLKSRLTITKDTSKNQVVLAMTNMDPVDTATYYCAHSQLGRDDYWGQGTLVTVSS
VL: EIVLTQSPATLCLSPGERATLSCRASQSVSNYLAWYQQKPGQAPRLLIYAASSRATGIPARFSGSGSGTDFTLTISTLEPEDFAVYYCQQRRDWPPTFGQGTKVEIK
notes: Monoclonal anti-OX40 antibody, IgG1 constant regions; also called 040-H7-IgG1
Kd [1]: 13.8 nM
koff [1]: 0.00824 s⁻¹
kon [1]: 598000 M⁻¹ s⁻¹
EC50 (read off the curve) [9]: ~5 µg/mL

B15: OX-H8-IgG1 (antibody, V domains shown)
VH: B2 VH 1
VL: B14 VL with C12S, V29I, S30N, N31S, K39N, A50L, S53N, S76T, T77S, R92S
notes: Monoclonal anti-OX40 antibody, IgG1 constant regions
Kd [1]: 8.68 nM
koff [1]: 0.00441 s⁻¹
kon [1]: 508000 M⁻¹ s⁻¹
EC50 (read off the curve) [10]: ~7 µg/mL
